The values below come from patent US20050233963A1 (SCIENCE AND TECHNOLOGY CORPORATION UNM, published 2005).

For experiment [1], the target named is T1, hsc70 (constitutively expressed form of hsp70) (UniProt P11142 1-646).
T1 construct: also called hs70 (printed for both hsp70 and hsc70); pure hsc70
Briefly: far-western, GST fusion probe on blotted 20 ng protein.

In experiment [2] the target is T2, hsp70 (heat shock protein 70) (UniProt P0DMV8 1-641).
T2 construct: also called hs70 (printed for both hsp70 and hsc70); pure hsp70
The description is as above.

T2 sequence (P0DMV8 whole entry): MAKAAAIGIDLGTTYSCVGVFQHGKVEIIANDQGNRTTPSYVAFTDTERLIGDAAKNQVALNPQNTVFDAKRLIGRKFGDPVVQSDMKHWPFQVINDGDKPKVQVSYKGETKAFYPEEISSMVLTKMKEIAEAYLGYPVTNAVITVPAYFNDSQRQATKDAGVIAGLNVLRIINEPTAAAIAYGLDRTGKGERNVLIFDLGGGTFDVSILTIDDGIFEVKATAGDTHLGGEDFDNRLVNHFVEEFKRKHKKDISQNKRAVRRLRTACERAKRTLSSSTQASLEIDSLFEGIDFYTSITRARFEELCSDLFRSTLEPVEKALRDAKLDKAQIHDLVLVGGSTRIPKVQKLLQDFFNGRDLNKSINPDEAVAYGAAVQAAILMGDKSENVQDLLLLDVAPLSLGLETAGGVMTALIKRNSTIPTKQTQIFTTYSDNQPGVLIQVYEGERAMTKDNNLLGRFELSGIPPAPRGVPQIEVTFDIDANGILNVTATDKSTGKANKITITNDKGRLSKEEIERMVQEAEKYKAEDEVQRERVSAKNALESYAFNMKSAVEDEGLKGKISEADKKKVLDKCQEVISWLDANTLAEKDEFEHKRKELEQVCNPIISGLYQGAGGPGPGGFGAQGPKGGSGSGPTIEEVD
T1 sequence (P11142 whole entry): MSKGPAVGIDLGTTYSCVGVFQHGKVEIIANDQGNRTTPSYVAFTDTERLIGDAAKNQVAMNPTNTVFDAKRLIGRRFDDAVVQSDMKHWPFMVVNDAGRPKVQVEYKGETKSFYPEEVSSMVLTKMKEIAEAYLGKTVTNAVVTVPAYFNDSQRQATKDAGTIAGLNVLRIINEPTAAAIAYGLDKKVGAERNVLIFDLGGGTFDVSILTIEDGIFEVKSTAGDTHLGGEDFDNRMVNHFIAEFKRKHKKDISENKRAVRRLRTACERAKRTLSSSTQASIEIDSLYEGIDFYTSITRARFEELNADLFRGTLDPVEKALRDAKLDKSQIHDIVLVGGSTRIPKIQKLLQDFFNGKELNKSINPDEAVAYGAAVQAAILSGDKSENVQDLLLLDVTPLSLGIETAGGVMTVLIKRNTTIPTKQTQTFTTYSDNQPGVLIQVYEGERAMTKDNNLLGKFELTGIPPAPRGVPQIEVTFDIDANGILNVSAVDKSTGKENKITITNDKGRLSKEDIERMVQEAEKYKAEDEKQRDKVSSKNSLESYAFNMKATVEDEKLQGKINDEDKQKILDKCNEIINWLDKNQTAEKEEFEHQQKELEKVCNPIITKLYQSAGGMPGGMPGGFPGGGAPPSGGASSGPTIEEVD

B1: GST-UBP C1/2 (a.a. 145-313) (other, UniProt O43765 145-313, looked up)
chain: VQDCERAICIDPAYSKAYGRMGLALSSLNKHVEAVAYYKKALELDPDNETYKSNLKIAELKLREAPSPTGGVGSFDIAGLLNNPGFMSMASNLMNNPQIQQLMSGMISGGNNPLGTPGTSPSQNDLASLIQAGQQFAQQMQQQNPELIEQLRSQIRSRTPSASNDDQQE
notes: also called C/2; not shown: glutathione S-transferase (GST) fusion partner
As for B1, the binding result in experiment [1] and in experiment [2] was “no binding” in each case.

B2: GST-UBP N1/2 (a.a. 1-145) (other, UniProt O43765 1-145, looked up)
chain: MDNKKRLAYAIIQFLHDQLRHGGLSSDAQESLEVAIQCLETAFGVTVEDSDLALPQTLPEIFEAAATGKEMPQDLRSPARTPPSEEDSAEAERLKTEGNEQMKVENFEAAVHFYGKAIELNPANAVYFCNRAAAYSKLGNYAGAV
notes: not shown: glutathione S-transferase (GST) fusion partner
As to B2, the binding result in experiment [1] and in experiment [2] was “no binding” throughout.
